Results published in the Immune Epitope Database (IEDB).

Key:
HLA-B*40:02 = assay: IEDB peptide-MHC binding, purified MHC/competitive/radioactivity; filed as Kd, often an IC50 or EC50 that approximates it; ≥ and ≤ were set here for values at or beyond the usual limits of such assays
HLA-B*44:03 = assay: as above
HLA-B*18:01 [1] = assay: as above
HLA-B*45:01 = assay: as above
HLA-B*44:02 [2] = assay: as above
HLA-B*40:01 [3] = assay: as above
HLA-A*11:01 [4] = assay: IEDB peptide-MHC binding, purified MHC/competitive/fluorescence; ≥ and ≤ were set here for values at or beyond the usual limits of such assays
HLA-A*24:02 = assay: as above; settings: source organism: Zaire ebolavirus
HLA-B*57:01 [5] = assay: IEDB peptide-MHC binding, purified MHC/competitive/radioactivity; filed as Kd, often an IC50 or EC50 that approximates it; ≥ and ≤ were set here for values at or beyond the usual limits of such assays
HLA-B*46:01 [6] = assay: IEDB peptide-MHC binding, purified MHC/direct/fluorescence; filed as Kd, often an IC50 or EC50 that approximates it; ≥ and ≤ were set here for values at or beyond the usual limits of such assays
HLA-B*07:02 = assay: as above
HLA-A*01:01 [7] = assay: as above
HLA-B*18:01 [8] = assay: as above
HLA-B*58:01 = assay: as above
HLA-A*03:01 = assay: as above
HLA-B*44:02 [9] = assay: as above
HLA-A*31:01 = assay: as above
HLA-A*11:01 [10] = assay: as above
HLA-A*02:01 = assay: as above
HLA-B*57:01 [11] = assay: as above
HLA-B*27:05 = assay: as above
HLA-A*26:01 = assay: IEDB peptide-MHC binding, purified MHC/competitive/radioactivity; filed as Kd, often an IC50 or EC50 that approximates it; ≥ and ≤ were set here for values at or beyond the usual limits of such assays; settings: source organism: Dengue virus 2 Jamaica/1409/1983
HLA-A*01:01 [12] = assay: as above
HLA-B*48:01 = assay: IEDB peptide-MHC binding, purified MHC/direct/fluorescence; filed as Kd, often an IC50 or EC50 that approximates it; ≥ and ≤ were set here for values at or beyond the usual limits of such assays
HLA-B*08:01 = assay: as above; settings: source organism: Mammarenavirus brazilense
HLA-A*69:01 = assay: as above
HLA-B*15:01 = assay: as above
HLA-B*53:01 = assay: IEDB peptide-MHC binding, purified MHC/competitive/radioactivity; filed as Kd, often an IC50 or EC50 that approximates it; ≥ and ≤ were set here for values at or beyond the usual limits of such assays; settings: source organism: Dengue virus 4 Philippines/H241/1956
HLA-B*46:01 [13] = assay: IEDB peptide-MHC binding, purified MHC/competitive/fluorescence; filed as Kd, often an IC50 or EC50 that approximates it; ≥ and ≤ were set here for values at or beyond the usual limits of such assays
HLA-B*40:01 [14] = assay: IEDB peptide-MHC binding, purified MHC/direct/fluorescence; filed as Kd, often an IC50 or EC50 that approximates it; ≥ and ≤ were set here for values at or beyond the usual limits of such assays; settings: source organism: West Nile virus
[15] = source organism: SARS coronavirus Tor2
[16] = source organism: Mammarenavirus machupoense
[17] = source organism: Zaire ebolavirus
[18] = source organism: Lymphocytic choriomeningitis virus (strain Armstrong)
[19] = source organism: Dengue virus 2 Jamaica/1409/1983
[20] = source organism: Yellow fever virus
[21] = source organism: Dengue virus 4 Philippines/H241/1956
[22] = source organism: Mammarenavirus brazilense
[23] = source organism: Dengue virus 3 Martinique/1243/1999
[24] = source organism: West Nile virus
[25] = source organism: Mammarenavirus juninense

Sequence | Kd (HLA-B*40:02; [15]) [µM] | Kd (HLA-B*44:03; [15]) [µM] | Kd (HLA-B*18:01 [1]; [15]) [µM] | Kd (HLA-B*45:01; [15]) [µM] | Kd (HLA-B*44:02 [2]; [15]) [µM] | Kd (HLA-B*40:01 [3]; [15]) [µM] | other results
HEDLMAAYV | 1.33 | 5.06 | 3.91 | 1.69 | 7.08 | 1.2 | –
SELVIGAVI | 0.0559 | 0.426 | 2.59 | 0.155 | 0.605 | 0.0889 | –
SQNSTEGRR | – | – | – | – | – | – | IC50 (HLA-A*11:01 [4]; source organism: Sudan ebolavirus): 22.4 µM
AEIVDTVSAL | 2.57 | 0.105 | ≥ 23.1 | 0.287 | 0.0864 | 0.00114 | –
WEPEFYEAMY | 7.18 | 0.377 | 1.65 | ≥ 52.4 | 2.22 | 5.41 | –
NDNFLMSNV | – | – | – | – | – | – | Kd (HLA-B*40:02; [16]): 2.99 µM; Kd (HLA-B*44:03; [16]): 19.6 µM; Kd (HLA-B*18:01 [1]; [16]): ≥ 43.6 µM; Kd (HLA-B*45:01; [16]): ≥ 10 µM; Kd (HLA-B*44:02 [2]; [16]): 13.1 µM; Kd (HLA-B*40:01 [3]; [16]): ≥ 27.6 µM
NELSLALGL | 0.154 | 0.0285 | 0.0909 | 5.85 | 0.409 | 0.277 | –
VETFYPKLQA | 12.6 | ≥ 41.4 | ≥ 59.6 | 2.6 | ≥ 70.2 | ≥ 69.6 | –
LDGQQFYWP | – | – | – | – | – | – | IC50 (HLA-A*24:02): ≥ 210 µM; IC50 (HLA-A*11:01 [4]; [17]): ≥ 150 µM
EEHFVETVSL | 0.0843 | 0.143 | 1.04 | 0.116 | 0.44 | 0.0092 | –
ADSDDILTL | – | – | – | – | – | – | Kd (HLA-B*40:02; [18]): ≥ 22.2 µM; Kd (HLA-B*44:03; [18]): 6.06 µM; Kd (HLA-B*18:01 [1]; [18]): ≥ 77.5 µM; Kd (HLA-B*45:01; [18]): ≥ 77.7 µM; Kd (HLA-B*44:02 [2]; [18]): ≥ 20.8 µM; Kd (HLA-B*40:01 [3]; [18]): ≥ 26.9 µM
KDMPGGYCL | – | – | – | – | – | – | Kd (HLA-B*40:02; [16]): 0.235 µM; Kd (HLA-B*44:03; [16]): ≥ 78.1 µM; Kd (HLA-B*18:01 [1]; [16]): ≥ 38.9 µM; Kd (HLA-B*45:01; [16]): 18.2 µM; Kd (HLA-B*44:02 [2]; [16]): ≥ 42.5 µM; Kd (HLA-B*40:01 [3]; [16]): 17.7 µM
RTSKKRSWPL | – | – | – | – | – | – | Kd (HLA-B*57:01 [5]; [19]): 0.69 µM
SSARYDVAL | – | – | – | – | – | – | Kd (HLA-B*46:01 [6]; [20]): ≥ 20 µM; Kd (HLA-B*07:02; source organism: Yellow fever virus 17D): ≥ 20 µM; Kd (HLA-A*01:01 [7]; [20]): ≥ 20 µM; Kd (HLA-B*18:01 [8]; [20]): ≥ 20 µM; Kd (HLA-B*58:01; [20]): ≥ 20 µM; Kd (HLA-A*03:01; [20]): ≥ 20 µM; Kd (HLA-B*44:02 [9]; [20]): ≥ 20 µM; Kd (HLA-A*31:01; [20]): ≥ 20 µM; Kd (HLA-A*11:01 [10]; [20]): ≥ 20 µM; Kd (HLA-A*02:01; [20]): ≥ 20 µM; Kd (HLA-B*57:01 [11]; [20]): ≥ 20 µM; Kd (HLA-B*27:05; [20]): ≥ 20 µM
ETSWHYDQDH | – | – | – | – | – | – | Kd (HLA-A*26:01): ≥ 40.9 µM; Kd (HLA-A*01:01 [12]; [19]): ≥ 70.4 µM; Kd (HLA-B*57:01 [5]; [19]): 2.31 µM
RFSTSLLFLN | – | – | – | – | – | – | Kd (HLA-B*57:01 [5]; [21]): 1.09 µM
EFKSRFFVM | – | – | – | – | – | – | Kd (HLA-B*46:01 [6]; [22]): ≥ 20 µM; Kd (HLA-B*07:02; [22]): ≥ 20 µM; Kd (HLA-A*01:01 [7]; [22]): ≥ 20 µM; Kd (HLA-B*58:01; [22]): ≥ 20 µM; Kd (HLA-B*48:01; [22]): ≥ 20 µM; Kd (HLA-B*08:01): 0.364 µM; Kd (HLA-A*03:01; [22]): ≥ 20 µM; Kd (HLA-A*69:01; [22]): ≥ 20 µM; Kd (HLA-B*44:02 [9]; [22]): ≥ 20 µM; Kd (HLA-A*31:01; [22]): ≥ 20 µM; Kd (HLA-B*15:01; [22]): ≥ 20 µM; Kd (HLA-A*11:01 [10]; [22]): ≥ 20 µM; Kd (HLA-A*02:01; [22]): ≥ 20 µM; Kd (HLA-B*57:01 [11]; [22]): ≥ 20 µM; Kd (HLA-B*27:05; [22]): ≥ 20 µM
PASIAARGYI | – | – | – | – | – | – | Kd (HLA-B*57:01 [5]; [19]): 0.365 µM

Sequence | Kd (HLA-B*40:02; [15]) [µM] | Kd (HLA-B*44:03; [15]) [µM] | Kd (HLA-B*18:01 [1]; [15]) [µM] | Kd (HLA-B*45:01; [15]) [µM] | Kd (HLA-B*44:02 [2]; [15]) [µM] | Kd (HLA-B*40:01 [3]; [15]) [µM] | other results
KETLYRIDG | ≥ 45.6 | ≥ 30.6 | ≥ 77.5 | ≥ 24 | ≥ 57.7 | ≥ 46 | –
TEGLCVDIPG | 0.0918 | ≥ 34.9 | ≥ 70.5 | 0.0748 | ≥ 43.3 | ≥ 69.6 | –
EAVNDSRFW | – | – | – | – | – | – | Kd (HLA-B*53:01): 0.0132 µM; Kd (HLA-B*57:01 [5]; [21]): 1.26 µM
KDYMSLSEQL | 5.78 | ≥ 29.6 | ≥ 70.5 | – | ≥ 25.6 | 6.19 | –
TFSILNRKA | – | – | – | – | – | – | IC50 (HLA-A*11:01 [4]; [17]): 66.5 µM
KELSPRWYF | 0.0073 | 0.0528 | 1.88 | 6.01 | 0.0634 | 0.889 | –
NDLQFGFGW | – | – | – | – | – | – | Kd (HLA-B*40:02; [18]): 10.3 µM; Kd (HLA-B*44:03; [18]): 0.038 µM; Kd (HLA-B*18:01 [1]; [18]): 1.8 µM; Kd (HLA-B*45:01; [18]): ≥ 77.7 µM; Kd (HLA-B*44:02 [2]; [18]): 0.295 µM; Kd (HLA-B*40:01 [3]; [18]): ≥ 37.8 µM
IAFCNWAFV | – | – | – | – | – | – | Kd (HLA-A*69:01; source organism: Vibrio cholerae): 0.06 µM; Kd (HLA-B*46:01 [13]; source organism: Vibrio cholerae 2740-80): 4.36 µM
SSSMRKTDWL | – | – | – | – | – | – | Kd (HLA-A*01:01 [12]; [23]): ≥ 49.7 µM; Kd (HLA-B*57:01 [5]; [23]): 3.14 µM
EETFKLSYGI | 0.194 | 0.13 | 19.7 | 2.54 | 0.076 | 3.58 | –
HECFVKRVDW | 5.78 | 0.187 | 6.62 | ≥ 33.8 | 0.302 | ≥ 69.6 | –
EEAIRHVRAW | ≥ 70.8 | 0.0142 | ≥ 43.1 | 4.77 | 0.0073 | ≥ 69.6 | –
ISRDIMDAY | – | – | – | – | – | – | Kd (HLA-B*46:01 [13]; source organism: Bacillus cereus G9241): 0.0416 µM
VTLNASQYA | – | – | – | – | – | – | IC50 (HLA-A*11:01 [4]; source organism: Vaccinia virus Copenhagen): ≥ 227 µM
IDYVPLKSAT | ≥ 50.6 | ≥ 70.1 | ≥ 70.5 | 2.05 | ≥ 40 | ≥ 69.6 | –
TRAVGKPLL | – | – | – | – | – | – | Kd (HLA-B*46:01 [6]; [24]): ≥ 20 µM; Kd (HLA-B*07:02; [24]): ≥ 20 µM; Kd (HLA-B*18:01 [8]; [24]): ≥ 20 µM; Kd (HLA-B*58:01; [24]): ≥ 20 µM; Kd (HLA-B*48:01; [24]): ≥ 20 µM; Kd (HLA-A*03:01; [24]): ≥ 20 µM; Kd (HLA-A*69:01; [24]): ≥ 20 µM; Kd (HLA-B*44:02 [9]; [24]): ≥ 20 µM; Kd (HLA-B*15:01; [24]): ≥ 20 µM; Kd (HLA-B*40:01 [14]): ≥ 20 µM; Kd (HLA-A*02:01; [24]): ≥ 20 µM; Kd (HLA-B*57:01 [11]; [24]): ≥ 20 µM; Kd (HLA-B*27:05; [24]): ≥ 20 µM
SDFLISEML | – | – | – | – | – | – | Kd (HLA-B*40:02; [25]): 0.0171 µM; Kd (HLA-B*44:03; [25]): ≥ 51.5 µM; Kd (HLA-B*18:01 [1]; [25]): ≥ 56 µM; Kd (HLA-B*45:01; [25]): ≥ 27.6 µM; Kd (HLA-B*44:02 [2]; [25]): 2.4 µM; Kd (HLA-B*40:01 [3]; [25]): 11.5 µM
STSQETWNRQ | – | – | – | – | – | – | Kd (HLA-B*57:01 [5]; source organism: Dengue virus 1 Brazil/97-11/1997): 0.943 µM
